Laboratory results from patent US20180037641A1.

Biological target: P301S human tau, T34 isoform (1N4R), of P301S tg mice (line PS19) (human) (UniProt P10636)
Experiment: cell-based or functional assay

Sequence of P301S human tau, T34 isoform (1N4R), of P301S tg mice (line PS19) (human) (P10636 other isoform, or with tags, fused parts or gaps P301S P301S P301S P301S): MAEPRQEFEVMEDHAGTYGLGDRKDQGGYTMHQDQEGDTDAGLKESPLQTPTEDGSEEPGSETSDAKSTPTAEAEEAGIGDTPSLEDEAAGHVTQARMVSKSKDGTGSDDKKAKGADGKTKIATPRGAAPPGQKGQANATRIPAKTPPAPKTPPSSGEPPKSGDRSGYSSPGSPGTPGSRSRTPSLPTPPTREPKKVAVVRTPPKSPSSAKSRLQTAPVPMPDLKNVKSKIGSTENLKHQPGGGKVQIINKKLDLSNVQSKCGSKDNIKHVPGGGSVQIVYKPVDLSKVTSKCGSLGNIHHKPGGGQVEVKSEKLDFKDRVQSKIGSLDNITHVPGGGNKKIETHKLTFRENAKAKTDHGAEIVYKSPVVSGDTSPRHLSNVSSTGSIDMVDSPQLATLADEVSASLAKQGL

antibody concentration that significantly blocked uptake and seeding activity: 0.5 µg/mL | lowest antibody concentration that blocked seeding activity (titration against a fixed amount of P301S brain lysate): 0.25 µg/mL
B1: HJ8.5 (antibody, V domains shown)
VH: EVKVEESGGGLVQPGGSMKLSCVVSGFTFSNYWVNWVRQSPEKGLEWVAQIRLKSDNYATHYEESVKGRFTISRDDSKSSVYLQMNNLRAEDSGIYYCTNWEDYWGQGTTLTVSS
VL: DIVLTQSPASLAVSLGQRATISCRASQSVSTSRYSYIHWYQQKPGQPPKLLIKYASNLESGVPARFSGSGSGTDFTLNIHPLEEEDAATYYCHHSWEIPLTFGAGTKLELK
